Experimental data: article PMC7496778, “Characterizing the original anti‐C5 function‐blocking antibody, BB5.1, for species specificity, mode of action and interactions with C5” (Immunology, 2020)

How the values were obtained:
[1] = biological target: T1, mouse complement component 5 (C5) (Mus musculus, strain , UniProt P06684); assay: SPR; Biacore T200; BB5.1 immobilised on CM5 chip by amine coupling (~200 RU); mouse C5 flowed at 52-4 nM in HBS-EP (10 mM HEPES, 150 mM NaCl, 0.05% surfactant P20), 30 µl/min, 25°; Langmuir 1:1 binding model; details: both partners purified
T1 construct: complement C5 beta chain (80 000 MW), mouse, cut from the C5 precursor; complement C5 alpha chain (115 000 MW), mouse, cut from the C5 precursor; also called mouse C5; intact C5; source: purified in-house

[2] = biological target: T2, human complement component 5 (C5) (Homo sapiens, UniProt P01031); assay: ELISA; direct ELISA; plates coated with mouse or human C5 (0.5 µg/ml, bicarbonate buffer pH 9.6); BB5.1 intact mAb 5-0 µg/ml or Fab 20-0 µg/ml in 0.2% BSA-PBS, 1 hr at 37°; HRP-labelled secondary antibody; details: both partners purified
T2 construct: complement C5 beta chain, human, cut from the C5 precursor; complement C5 alpha chain, human, cut from the C5 precursor; also called human C5; source: purified in-house
T2 sequence (P01031 whole entry, looked up): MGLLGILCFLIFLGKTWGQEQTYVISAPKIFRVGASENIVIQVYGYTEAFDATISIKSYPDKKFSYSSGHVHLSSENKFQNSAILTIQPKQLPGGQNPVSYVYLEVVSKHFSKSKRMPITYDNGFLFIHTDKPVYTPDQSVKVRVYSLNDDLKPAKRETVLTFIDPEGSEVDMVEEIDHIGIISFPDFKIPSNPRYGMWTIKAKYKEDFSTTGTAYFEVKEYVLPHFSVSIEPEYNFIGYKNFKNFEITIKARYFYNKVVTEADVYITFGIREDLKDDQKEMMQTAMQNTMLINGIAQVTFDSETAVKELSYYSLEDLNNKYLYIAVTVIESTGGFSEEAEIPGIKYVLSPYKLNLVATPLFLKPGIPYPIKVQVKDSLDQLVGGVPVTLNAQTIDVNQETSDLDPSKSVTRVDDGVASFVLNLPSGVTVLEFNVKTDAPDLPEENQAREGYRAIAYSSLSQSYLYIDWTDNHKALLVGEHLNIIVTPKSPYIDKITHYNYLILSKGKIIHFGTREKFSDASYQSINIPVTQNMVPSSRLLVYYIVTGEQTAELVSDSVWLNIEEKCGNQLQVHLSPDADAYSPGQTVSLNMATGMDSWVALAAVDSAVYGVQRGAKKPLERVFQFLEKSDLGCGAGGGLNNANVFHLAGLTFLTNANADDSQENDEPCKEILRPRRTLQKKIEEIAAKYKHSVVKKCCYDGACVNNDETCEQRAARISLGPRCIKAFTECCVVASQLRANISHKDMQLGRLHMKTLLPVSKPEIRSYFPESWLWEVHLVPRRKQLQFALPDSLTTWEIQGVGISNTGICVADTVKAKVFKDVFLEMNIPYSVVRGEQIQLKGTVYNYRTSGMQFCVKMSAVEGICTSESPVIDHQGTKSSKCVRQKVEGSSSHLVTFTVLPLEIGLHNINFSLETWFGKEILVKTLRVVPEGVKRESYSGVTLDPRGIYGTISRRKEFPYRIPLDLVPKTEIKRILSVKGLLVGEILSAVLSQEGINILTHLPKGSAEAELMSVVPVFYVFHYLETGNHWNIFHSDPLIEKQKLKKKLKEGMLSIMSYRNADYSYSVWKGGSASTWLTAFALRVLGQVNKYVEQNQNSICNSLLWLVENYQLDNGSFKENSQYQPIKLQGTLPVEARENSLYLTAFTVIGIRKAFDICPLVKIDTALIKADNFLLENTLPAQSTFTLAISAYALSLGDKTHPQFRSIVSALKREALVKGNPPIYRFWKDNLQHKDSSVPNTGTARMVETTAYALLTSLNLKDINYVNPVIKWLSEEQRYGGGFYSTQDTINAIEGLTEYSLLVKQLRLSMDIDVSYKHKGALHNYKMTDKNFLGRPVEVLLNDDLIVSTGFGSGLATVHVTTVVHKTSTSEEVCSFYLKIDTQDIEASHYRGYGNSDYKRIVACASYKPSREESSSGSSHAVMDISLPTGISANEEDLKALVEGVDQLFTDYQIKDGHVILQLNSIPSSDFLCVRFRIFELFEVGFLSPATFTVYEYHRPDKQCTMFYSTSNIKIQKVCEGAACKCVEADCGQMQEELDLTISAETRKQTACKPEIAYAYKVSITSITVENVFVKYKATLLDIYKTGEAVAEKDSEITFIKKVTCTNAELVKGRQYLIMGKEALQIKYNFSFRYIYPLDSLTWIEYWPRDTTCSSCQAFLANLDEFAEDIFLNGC

B1: BB5.1 anti-C5 monoclonal antibody (intact mAb) (antibody, V domains shown)
VH: QVQLQQPGAELVRPGTSVKLSCKASGYTFTSSWMHWVKQRPGQGLEWIGVIDPSDSYTNYNQKFKGKATLTVDTSSSTAYMQLSSLTSEDSAVYYCARGGGSSYNRYFDVWGTGTTVTVSS
VL: NIMMTQSPSSLAVSAGEKVTMSCKSSQSVLYSSNQKNYLAWYQQKPGQSPKLLIYWASTRESGVPDRFTGSGSGTDFTLTISSVQAEDLAVYYCHQYLSSRTFGGGTKLEIK
notes: full variable heavy domain; full variable light domain; raised in C5-deficient mice; also called BB5.1 mAb; full-length BB5.1; source: BB5.1 hybridoma (re-cloned), purified on HiTrap Protein G sepharose
Question: How did the Kd [1] turn out when B1 was run?
Answer: 8.1 nM

Question: And the koff [1]?
Answer: 0.0013 s⁻¹

Question: Does B1 bind [2]?
Answer: no binding (tested: 5 µg/ml)

B2: BB5.1 Fab fragments (Fab, V domains shown)
VH: B1 VH
VL: B1 VL
notes: as the VH of m1; as the VL of m1; Fab of a mouse IgG1, kappa antibody; also called BB5.1-derived Fab fragment; source: immobilized ficin digestion of purified BB5.1 mAb; Fc-containing proteins removed on Protein A or G column
Question: Does B2 bind [2]?
Answer: no binding (tested: 20 µg/ml)
